As usually defined, the Kd is the equilibrium constant for the complex coming apart.

These results are taken from PMC3080137, “The Anti-Apoptotic Bcl-xL Protein, a New Piece in the Puzzle of Cytochrome C Interactome” (PLoS ONE, 2011).

The test has as its target human Bcl-xL (residues 1-209, lacking the C-terminal hydrophobic tail) (human, UniProt Q07817-1 1-209, 15N-labelled where it was the observed protein). Nature of the test: NMR titration; 15N-Bcl-xL titrated with unlabeled cytochrome c up to Bcl-xL:cytochrome c 1:10, 1H-15N HSQC; Kd from weighted average chemical shift variations; 300 K; 50 mM sodium phosphate pH 7.3, 150 mM NaCl, 1 mM DTT, 10% D2O. As to conditions: both partners purified.

Chain of human Bcl-xL (residues 1-209, lacking the C-terminal hydrophobic tail) (Q07817 1-209): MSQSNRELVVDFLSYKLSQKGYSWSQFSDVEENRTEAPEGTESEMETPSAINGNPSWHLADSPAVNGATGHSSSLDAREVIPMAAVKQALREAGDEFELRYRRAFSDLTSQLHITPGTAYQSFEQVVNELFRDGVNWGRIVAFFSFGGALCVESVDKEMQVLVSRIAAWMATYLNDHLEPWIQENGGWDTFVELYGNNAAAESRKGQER

B1: human cytochrome c (natural protein)
chain: not shown
modifications: heme, iron(II) (reduced) form; 15N-labelled where it was the observed protein
notes: cytochrome c, human, full length; also called reduced cytochrome c; source: expressed and purified as reported in the literature [36]; unlabeled and 15N-labeled form
On to B1, for which the Kd lay in the range of 1000 to 3000 µM.
